In publication PMC7388177 (Cell reports, 2020):
Substitutions are numbered along the chain they refer to. Numbers in names are those of the source. Values belong to the binder of their own block, whether it stands above or below them.

Key:
[1] = target: T1, human ATG9A, purified in LMNG (mVenus-His tag cleaved) (human), Q7Z3C6; test: negative-stain EM; conditions: remark: other sources report otherwise
T1 chain: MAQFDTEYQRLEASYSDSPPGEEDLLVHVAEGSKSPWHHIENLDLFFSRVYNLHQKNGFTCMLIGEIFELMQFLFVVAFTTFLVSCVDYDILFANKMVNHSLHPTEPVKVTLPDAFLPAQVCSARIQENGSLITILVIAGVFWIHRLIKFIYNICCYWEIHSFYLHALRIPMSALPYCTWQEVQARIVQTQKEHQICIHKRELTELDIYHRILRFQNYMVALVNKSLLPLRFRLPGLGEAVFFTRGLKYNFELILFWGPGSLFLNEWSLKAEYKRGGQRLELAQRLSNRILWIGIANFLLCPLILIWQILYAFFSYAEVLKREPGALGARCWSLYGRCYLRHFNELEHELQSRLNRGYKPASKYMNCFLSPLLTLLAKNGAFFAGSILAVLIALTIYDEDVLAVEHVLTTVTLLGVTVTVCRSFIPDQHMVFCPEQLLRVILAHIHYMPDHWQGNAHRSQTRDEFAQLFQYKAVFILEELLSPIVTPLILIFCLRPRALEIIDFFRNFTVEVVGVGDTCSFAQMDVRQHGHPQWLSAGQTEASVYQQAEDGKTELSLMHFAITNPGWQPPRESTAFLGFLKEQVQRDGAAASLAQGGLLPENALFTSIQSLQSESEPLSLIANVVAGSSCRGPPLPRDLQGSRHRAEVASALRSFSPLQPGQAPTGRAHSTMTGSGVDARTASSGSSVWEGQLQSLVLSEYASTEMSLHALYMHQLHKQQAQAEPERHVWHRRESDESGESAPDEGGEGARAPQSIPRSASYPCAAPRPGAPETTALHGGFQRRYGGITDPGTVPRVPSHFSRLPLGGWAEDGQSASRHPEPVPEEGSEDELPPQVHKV

[2] = target: T2, endogenous ATG9A of HeLa cells (human (endogenous in HeLa)), Q7Z3C6; test: cross-linking; conditions: remark: other sources report otherwise
T2 chain: T1 chain

cross-linking = target: the molecule itself; test: cross-linking
[3] = target: T3, ATG9A-mVenus fusion protein in membranes (human), Q7Z3C6; test: cross-linking; conditions: remark: other sources report otherwise
T3 chain: T1 chain

B3: ATG9A-mVenus (F68C + N379C) (natural protein, human, UniProt Q7Z3C6 1-839, looked up)
chain: T1 chain with F68C, N379C
stoichiometry N (cross-linking): 3

B5: ATG9A-mVenus (N57C + P371C) (natural protein, human, UniProt Q7Z3C6 1-839, looked up)
chain: T1 chain with N57C, P371C
stoichiometry N (cross-linking): 3

Results, then the binder that gave them:

stoichiometry N [1]: 3
B1: human ATG9A, purified in LMNG (mVenus-His tag cleaved), Q7Z3C6 1-839 (natural protein)
chain: T1 chain

stoichiometry N [2]: 3
B2: endogenous ATG9A of HeLa cells, Q7Z3C6 1-839 (natural protein)
chain: T1 chain

stoichiometry N [3]: 3
B4: ATG9A-mVenus fusion protein in membranes, Q7Z3C6 1-839 (natural protein)
chain: T1 chain
